Test results from article PMC9352680, “A comprehensive thermodynamic model for RNA binding by the Saccharomyces cerevisiae Pumilio protein PUF4”.
Where a chain is given by its changes, count along the chain named. Names and notes keep the numbering of the source.

T1: PUF4 RNA-binding domain (Saccharomyces cerevisiae, UniProt P25339 537-888)
T1 sequence: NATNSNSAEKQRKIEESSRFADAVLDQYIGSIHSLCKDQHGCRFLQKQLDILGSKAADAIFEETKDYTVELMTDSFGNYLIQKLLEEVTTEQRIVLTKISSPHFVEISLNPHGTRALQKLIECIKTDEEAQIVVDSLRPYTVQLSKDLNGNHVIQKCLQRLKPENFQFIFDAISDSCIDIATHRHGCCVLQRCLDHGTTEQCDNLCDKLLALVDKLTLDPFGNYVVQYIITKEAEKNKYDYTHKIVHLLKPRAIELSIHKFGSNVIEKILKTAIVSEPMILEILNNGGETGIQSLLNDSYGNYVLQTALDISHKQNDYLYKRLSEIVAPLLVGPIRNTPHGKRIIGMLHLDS

B1: Ie_S2_P5E.1_K5.1_C5.1_H5.1_A5.1_F5.1_[+9CTCTC]_T5.1 (ssRNA)
RNA: UUUGAUUAAUAUGAUAUCGUUCUUUCUUGUAUUAUUCUCUCAUUCUUUCUCGAUAUCAUAUUAAUCUUU
B2: Ie_S2_P5E.1_K5.1_C5.1_H5.1_A5.1_F5.1_[+9CCCTT]_T5.1 (ssRNA)
RNA: B1 RNA with U38C, C41U
B3: Ie_S2_P5E.1_K5.1_C5.1_H5.1_A5.1_F5.1_[+9TCTCT]_T5.1 (ssRNA)
RNA: B1 RNA with C37U, U38C, C39U, U40C, C41U
B4: Ie_S2_P5E.1_K5.1_C5.1_H5.1_A5.1_F5.1_[+10TTCCT]_T5.1 (ssRNA)
RNA: B1 RNA with C37A, C39U, U40C, A42U
B5: Ie_S2_P5E.1_K5.1_C5.1_H5.1_A5.1_F5.1_[+9TTCCT]_T5.1 (ssRNA)
RNA: B1 RNA with C37U, U40C, C41U
B6: Ie_S2_P5E.1_K5.1_C5.1_H5.1_A5.1_F5.1_[+9CCTCT]_T5.1 (ssRNA)
RNA: B1 RNA with U38C, C39U, U40C, C41U
B7: Ie_S2_P5E.1_K5.1_C5.1_H5.1_A5.1_F5.1_[+10TCTCT]_T5.1 (ssRNA)
RNA: B1 RNA with C37A, A42U
B8: Ie_S2_P5E.1_K5.1_C5.1_H5.1_A5.1_F5.1_[+10T]_T5.1 (ssRNA)
RNA: UUUGAUUAAUAUGAUAUCGUUCUUUCUUGUAUUAUUAUUUCUUUCUCGAUAUCAUAUUAAUCUUU
B9: Ib_S2_P3E.1_K3.1_C3.1_H3.1_[G2C]_[A4T]_A3.1_F3.1_T3.1 (ssRNA)
RNA: UUUGAUUAAUAUGAUAUCGUUCUUUCUUCUUUAUAUUCUUUCUCGAUAUCAUAUUAAUCUUU
B10: Ib_S2_P3E.1_K3.1_C3.1_H3.1_[T3C]_[A4G]_A3.1_F3.1_T3.1 (ssRNA)
RNA: B9 RNA with C29G, U30C, U31G
B11: Ib_S2_P3E.1_K3.1_C3.1_H3.1_[G2T]_[A4T]_A3.1_F3.1_T3.1 (ssRNA)
RNA: B9 RNA with C29U
B12: Ib_S2_P3E.1_K3.1_C3.1_H3.1_[T1C]_A3.1_[T5A]_F3.1_T3.1 (ssRNA)
RNA: B9 RNA with U28C, C29G, U31A, U32A
B13: Ib_S2_P3E.1_K3.1_C3.1_H3.1_[G2A]_[A4T]_A3.1_F3.1_T3.1 (ssRNA)
RNA: B9 RNA with C29A
B14: Ie_S2_P5E.1_K5.1_C5.1_H5.1_A5.1_F5.1_[+9TCC]_T5.1 (ssRNA)
RNA: UUUGAUUAAUAUGAUAUCGUUCUUUCUUGUAUUAUUUCCAUUCUUUCUCGAUAUCAUAUUAAUCUUU
B15: Ie_S2_P5E.1_K5.1_C5.1_H5.1_A5.1_F5.1_[+9TTC]_T5.1 (ssRNA)
RNA: B14 RNA with C38U
B16: Ie_S2_P5E.1_K5.1_C5.1_H5.1_A5.1_F5.1_[+10TTC]_T5.1 (ssRNA)
RNA: B14 RNA with U37A, C38U, C39U, A40C
B17: Ie_S2_P5E.1_K5.1_C5.1_H5.1_A5.1_F5.1_[+10TTT]_T5.1 (ssRNA)
RNA: B14 RNA with U37A, C38U, C39U, A40U
B18: Ie_S2_P5E.1_K5.1_C5.1_H5.1_A5.1_F5.1_[+10TCT]_T5.1 (ssRNA)
RNA: B14 RNA with U37A, C38U, A40U
B19: Ie_S2_P5E.1_K5.1_C5.1_H5.1_A5.1_F5.1_[+10TT]_T5.1 (ssRNA)
RNA: UUUGAUUAAUAUGAUAUCGUUCUUUCUUGUAUUAUUAUUUUCUUUCUCGAUAUCAUAUUAAUCUUU
B20: Ie_S2_P5E.1_K5.1_C5.1_H5.1_A5.1_F5.1_[+9TCTC]_T5.1 (ssRNA)
RNA: UUUGAUUAAUAUGAUAUCGUUCUUUCUUGUAUUAUUUCUCAUUCUUUCUCGAUAUCAUAUUAAUCUUU
B21: Ie_S2_P5E.1_K5.1_C5.1_H5.1_A5.1_F5.1_[+9CCTC]_T5.1 (ssRNA)
RNA: B20 RNA with U37C
B22: Ie_S2_P5E.1_K5.1_C5.1_H5.1_A5.1_F5.1_[+9TTCC]_T5.1 (ssRNA)
RNA: B20 RNA with C38U, U39C
B23: Ie_S2_P5E.1_K5.1_C5.1_H5.1_A5.1_F5.1_[+9CCCT]_T5.1 (ssRNA)
RNA: B20 RNA with U37C, U39C, C40U
B24: Ie_S2_P5E.1_K5.1_C5.1_H5.1_A5.1_F5.1_[+10TTCC]_T5.1 (ssRNA)
RNA: B20 RNA with U37A, C38U, A41C

target: T1, PUF4 RNA-binding domain; experiment: Mg; RNA-MaP; 20 mM Na-HEPES pH 7.4, 30 mM KOAc, 0.75 mM MgCl2, 0.1% Tween-20, 5% glycerol, 0.1 mg/mL BSA, 2 mM DTT; 25 C; 0.0125-409.6 nM protein; details: tags: N-His6-TEV cleaved; C-SNAP kept, Cy3B-labelled; label: tethered on chip by stalled RNA polymerase

B1 and B2 are within 1.5-fold of each other in Kd: 13.7 nM for the first, 12.8 nM for the second.

First: B3
Second: B4
The Kd of the first is 3.8-fold higher: 6.98 nM for the first, 1.84 nM for the second. The second binds more tightly here.

B5 and B6 are within 1.5-fold of each other in Kd: 7.79 nM for the first, 7.72 nM for the second.

Going from B7 to ACAAACUGUACCUCUAUUAACAAAC (ssRNA) [Ie_S3_P4E.1_K4.1_C4.1_H4.1_[+4CCTC]_A4.1_F4.1_T4.1], the Kd rises from 2.21 nM to 14.7 nM (6.7-fold). The first binds more tightly here.

Compared with ACAAACUGUCUAUUAUUAACAAAC (ssRNA) [Ie_S3_P5E.1_K5.1_C5.1_H5.1_[+3CT]_A5.1_F5.1_T5.1], ACAAACUCUCGUAUUAUUAACAAAC (ssRNA) [Ie_S3_P5E.1_K5.1_C5.1_H5.1_[+1CTC]_A5.1_F5.1_T5.1] is 64-fold higher in Kd: 28.6 nM for the first, 1830 nM for the second. The first binds more tightly here.

Going from ACAAACUGUCCUAUUAUUAACAAAC (ssRNA) [Ie_S3_P5E.1_K5.1_C5.1_H5.1_[+2TCC]_A5.1_F5.1_T5.1] to ACAAACUGUAUAUCUCUCUAACAAAC (ssRNA) [Ie_S3_P4E.1_K4.1_C4.1_H4.1_A4.1_[+7CTCTC]_F4.1_T4.1], the Kd falls from 101 nM to 14.6 nM (6.9-fold).

Going from ACAAACUCUCUCGUAUAUUAACAAAC (ssRNA) [Ie_S3_P4E.1_K4.1_C4.1_H4.1_[+1CTCTC]_A4.1_F4.1_T4.1] to B8, the Kd falls from 69.5 nM to 1.76 nM (39-fold). The second binds more tightly here.

Compared with B9, B10 is 1.5-fold lower in Kd: 1670 nM for the first, 1100 nM for the second. The second binds more tightly here.

B11 and B12 cannot be ordered by Kd: > 2300 nM for the first, > 2300 nM for the second.

Compared with B13, ACAAACUGUCCCUAUAUUAACAAAC (ssRNA) [Ie_S3_P4E.1_K4.1_C4.1_H4.1_[+3CCCT]_A4.1_F4.1_T4.1] is lower in Kd: > 2300 nM for the first, 602 nM for the second. The second binds more tightly here.

ACAAACUGCUUUAUAUUAACAAAC (ssRNA) [Ie_S3_P4E.1_K4.1_C4.1_H4.1_[+2CTT]_A4.1_F4.1_T4.1] and ACAAACUGUCCUCAUAUUAACAAAC (ssRNA) [Ie_S3_P4E.1_K4.1_C4.1_H4.1_[+3CCTC]_A4.1_F4.1_T4.1] are within 1.5-fold of each other in Kd: 896 nM for the first, 650 nM for the second.

Compared with ACAAACUGCUUUAUUAUUAACAAAC (ssRNA) [Ie_S3_P5E.1_K5.1_C5.1_H5.1_[+2CTT]_A5.1_F5.1_T5.1], ACAAACUGUAUAUUCUCUAACAAAC (ssRNA) [Ie_S3_P4E.1_K4.1_C4.1_H4.1_A4.1_[+7TCTC]_F4.1_T4.1] is lower in Kd: > 2300 nM for the first, 6.81 nM for the second.

ACAAACUGCCCUAUAUUAACAAAC (ssRNA) [Ie_S3_P4E.1_K4.1_C4.1_H4.1_[+2CCC]_A4.1_F4.1_T4.1] and ACAAACCUUGCCUUAUAUAUAACAAAC (ssRNA) [Ie_S3_P3E.2_K3.1_C3.2_H3.1_[+2CCT]_A3.1_F3.1_T3.2] are within 1.5-fold of each other in Kd: 1560 nM for the first, 1170 nM for the second.

B14 and B15 are within 1.5-fold of each other in Kd: 15.6 nM for the first, 14.1 nM for the second.

Going from B16 to B17, the Kd falls from 2.01 nM to 1.17 nM (1.7-fold). The second binds more tightly here.

Compared with B18, ACAAACUGUAUAUUAUUCCACAAAC (ssRNA) [Ie_S3_P4E.1_K4.1_C4.1_H4.1_A4.1_F4.1_[+9TTCC]_T4.1] is 6.7-fold lower in Kd: 3.7 nM for the first, 0.554 nM for the second.

Going from ACAAACUGCCUCUAUAUUAACAAAC (ssRNA) [Ie_S3_P4E.1_K4.1_C4.1_H4.1_[+2CCTC]_A4.1_F4.1_T4.1] to ACAAACUGCUCUAUAUUAACAAAC (ssRNA) [Ie_S3_P4E.1_K4.1_C4.1_H4.1_[+2CTC]_A4.1_F4.1_T4.1], the Kd falls from > 2300 nM to 1270 nM. The second binds more tightly here.

Going from ACAAACUGCUUAUAUUAACAAAC (ssRNA) [Ie_S3_P4E.1_K4.1_C4.1_H4.1_[+2CT]_A4.1_F4.1_T4.1] to ACAAACUGUCUCUUAUUAUUAACAAAC (ssRNA) [Ie_S3_P5E.1_K5.1_C5.1_H5.1_[+2TCTCT]_A5.1_F5.1_T5.1], the Kd falls from 1800 nM to 513 nM (3.5-fold). The second binds more tightly here.

Compared with ACAAACCUUUCGUAUAUAUAACAAAC (ssRNA) [Ie_S3_P3E.2_K3.1_C3.2_H3.1_[+1TC]_A3.1_F3.1_T3.2], ACAAACUGUCCUAUAUUAACAAAC (ssRNA) [Ie_S3_P4E.1_K4.1_C4.1_H4.1_[+3CCT]_A4.1_F4.1_T4.1] is 15-fold lower in Kd: 927 nM for the first, 59.9 nM for the second.

Compared with ACAAACUGUAUUCCUAUUAACAAAC (ssRNA) [Ie_S3_P4E.1_K4.1_C4.1_H4.1_[+4TTCC]_A4.1_F4.1_T4.1], ACAAACUGCUAUAUUAACAAAC (ssRNA) [Ie_S3_P4E.1_K4.1_C4.1_H4.1_[+2C]_A4.1_F4.1_T4.1] is 68-fold higher in Kd: 9.85 nM for the first, 672 nM for the second. The first binds more tightly here.

Going from ACAAACCUUGCCUCUUAUAUAUAACAAAC (ssRNA) [Ie_S3_P3E.2_K3.1_C3.2_H3.1_[+2CCTCT]_A3.1_F3.1_T3.2] to B19, the Kd falls from 1010 nM to 2.29 nM (440-fold).

First: ACAAACCUUUUCCGUAUAUAUAACAAAC (ssRNA) [Ie_S3_P3E.2_K3.1_C3.2_H3.1_[+1TTCC]_A3.1_F3.1_T3.2]
Second: ACAAACUGUAUAUUUCUCAACAAAC (ssRNA) [Ie_S3_P4E.1_K4.1_C4.1_H4.1_A4.1_F4.1_[+8TCTC]_T4.1]
The Kd of the first is 140-fold higher: 1200 nM for the first, 8.77 nM for the second. The second binds more tightly here.

ACAAACUGUAUAUUCCUAACAAAC (ssRNA) [Ie_S3_P4E.1_K4.1_C4.1_H4.1_A4.1_[+7TCC]_F4.1_T4.1] and ACAAACUGUAUAUUCCCUAACAAAC (ssRNA) [Ie_S3_P4E.1_K4.1_C4.1_H4.1_A4.1_F4.1_[+8CCCT]_T4.1] are within 1.5-fold of each other in Kd: 7.23 nM for the first, 6.57 nM for the second.

Compared with ACAAACCUUGCCCUUUAUAUAUAACAAAC (ssRNA) [Ie_S3_P3E.2_K3.1_C3.2_H3.1_[+2CCCTT]_A3.1_F3.1_T3.2], ACAAACUGUAUCCCUAUUAACAAAC (ssRNA) [Ie_S3_P5E.1_K5.1_C5.1_H5.1_A5.1_[+5CCC]_F5.1_T5.1] is 42-fold lower in Kd: 1020 nM for the first, 24.3 nM for the second. The second binds more tightly here.

First: B20
Second: B21
The Kd of the first is 1.6-fold lower: 10.2 nM for the first, 16.4 nM for the second.

Going from B22 to B23, the Kd falls from 13.2 nM to 8.29 nM (1.6-fold).

Going from B24 to ACAAACCUUCCUCGUAUAUAUAACAAAC (ssRNA) [Ie_S3_P3E.2_K3.1_C3.2_H3.1_[+1CCTC]_A3.1_F3.1_T3.2], the Kd rises from 2.02 nM to 565 nM (280-fold).

ACAAACUGCUUAUUAUUAACAAAC (ssRNA) [Ie_S3_P5E.1_K5.1_C5.1_H5.1_[+2CT]_A5.1_F5.1_T5.1] and ACAAACUGCCUCUAUUAUUAACAAAC (ssRNA) [Ie_S3_P5E.1_K5.1_C5.1_H5.1_[+2CCTC]_A5.1_F5.1_T5.1] cannot be ordered by Kd: > 2300 nM for the first, > 2300 nM for the second.
